Test results taken from patent US12097241B2, “Methods of treating kidney failure, and/or improving or stablizing renal function using modified relaxin polypeptides” (BRISTOL-MYERS SQUIBB COMPANY, priority 2017, dated 2024).
Like-named read-outs stand apart in the source and are kept apart here.

Assay: In vivo pharmacokinetic (PK) studies in rats
Design: species or system Sprague-Dawley rats
Conditions: for AUC(0-inf): read-out: Rat PK AUC Total; for level at time molar at 24 h: read-out: Rat PK C24
Method: […] Blood samples were collected via jugular vein at different time points out to 72 hours. Blood samples were allowed to coagulate at room temperature (30-60 m) and then centrifuged (1500-2000) at 4° C. to obtain serum. After centrifugation serum samples were transferred to 96 well plates and stored at −80° C. until bioanalysis. Relaxin concentrations were measured from serum by ELISA.
Relaxin concentration-time profiles from individual animals were used for analysis. Pharmacokinetic parameters were calculated by non-compartmental methods using Phoenix WinNonlin (version 6.4) or Kinetica (version 5). Mean pharmacokinetic parameters Cmax, AUCinf, C24 and half-life were reported (Table 4). Table 4. In vivo PK data (abbreviations as in Table 3).

[1] = rat, male Sprague-Dawley rats, single SC dose 1.0 mg/kg, serum ELISA
[2] = rats, SC dose 1.0 mg/kg, adjusted from 0.3 mpk

SMILES	AUC(0-inf) [1] [µM·h]	level at time molar at 24 h [1] [nM]	Rat PK AUC Total [2] [µM·h]	level at time molar at 24 h [2] [nM]
CC[C@H](C)[C@@H]1NC(=O)[C@H](C)NC(=O)[C@H]([C@@H](C)CC)NC(=O)[C@H](CCC(N)=O)NC(=O)[C@H](C)NC(=O)[C@H](CCCNC(=N)N)NC(=O)[C@H](C(C)C)NC(=O)[C@H](CC(C)C)NC(=O)[C@H](CCC(=O)O)NC(=O)[C@H](CCCNC(=N)N)NC(=O)CNC(=O)[C@@H](NC(=O)[C@H](CC(C)C)NC(=O)[C@H](CCCCN)NC(=O)[C@@H](NC(=O)[C@@H](NC(=O)[C@H](CCC(=O)O)NC(=O)[C@H](CCC(=O)O)NC(=O)[C@H](CCSC)NC(=O)[C@H](Cc2c[nH]c3ccccc23)NC(=O)[C@H](CO)NC(=O)[C@H](C)N)C(C)C)[C@@H](C)CC)CSSC[C@@H]2NC(=O)[C@@H](NC(=O)[C@H](CCCCN)NC(=O)[C@H](CC(N)=O)NC(=O)[C@H](C)NC(=O)[C@H](CC(C)C)NC(=O)[C@H](C)NC(=O)[C@H](CO)NC(=O)[C@H](Cc3ccc(O)cc3)NC(=O)[C@H](CC(C)C)NC(=O)[C@@H](N)Cc3ccc(C(C)=NOCCNC(=O)[C@H](CCCCN)NC(=O)[C@H](CCCCN)NC(=O)[C@H](CCCCN)NC(=O)[C@H](CCCCN)NC(=O)[C@H](CCCCN)NC(=O)[C@H](CCCCN)NC(=O)CC[C@H](NC(=O)CCCCCCCCCCCCC(=O)O)C(=O)O)cc3)CSSC[C@H](NC(=O)CNC(=O)[C@H](C(C)C)NC(=O)[C@H](Cc3c[nH]cn3)NC2=O)C(=O)N[C@@H]([C@@H](C)O)C(=O)N[C@@H](CCCCN)C(=O)N[C@@H](CCCNC(=N)N)C(=O)N[C@@H](CO)C(=O)N[C@@H](CC(C)C)C(=O)N[C@@H](C)C(=O)N[C@@H](CCCNC(=N)N)C(=O)N[C@@H](Cc2ccccc2)C(=O)N[C@H](C(=O)O)CSSC[C@@H](C(=O)NCC(=O)N[C@@H](CCSC)C(=O)N[C@@H](CO)C(=O)N[C@H](C(=O)N[C@@H](Cc2c[nH]c3ccccc23)C(=O)N[C@@H](CO)C(=O)O)[C@@H](C)O)NC1=O [AQ1-KKKKKK-Glu^γ-C13-COOH]	0.038	0.05		
CCCCCCCCCCCCCCCC(=O)N[C@@H](CCC(=O)NCC(=O)NCC(=O)NCC(=O)N[C@@H](CCC(=O)O)C(=O)N[C@@H](CCC(=O)O)C(=O)N[C@@H](CCC(=O)O)C(=O)NCCON=C(C)c1ccc(C[C@H](N)C(=O)N[C@@H](CC(C)C)C(=O)N[C@@H](Cc2ccc(O)cc2)C(=O)N[C@@H](CO)C(=O)N[C@@H](C)C(=O)N[C@@H](CC(C)C)C(=O)N[C@@H](C)C(=O)N[C@@H](CC(N)=O)C(=O)N[C@@H](CCCCN)C(=O)N[C@H]2CSSC[C@@H]3NC(=O)CNC(=O)[C@H](C(C)C)NC(=O)[C@H](Cc4c[nH]cn4)NC(=O)[C@H](CSSC[C@H](NC(=O)[C@H](CC(C)C)NC(=O)[C@H](CCCCN)NC(=O)[C@@H](NC(=O)[C@@H](NC(=O)[C@H](CCC(=O)O)NC(=O)[C@H](CCC(=O)O)NC(=O)[C@H](CCSC)NC(=O)[C@H](Cc4c[nH]c5ccccc45)NC(=O)[C@H](CO)NC(=O)[C@H](C)N)C(C)C)[C@@H](C)CC)C(=O)NCC(=O)N[C@@H](CCCNC(=N)N)C(=O)N[C@@H](CCC(=O)O)C(=O)N[C@@H](CC(C)C)C(=O)N[C@@H](C(C)C)C(=O)N[C@@H](CCCNC(=N)N)C(=O)N[C@@H](C)C(=O)N[C@@H](CCC(N)=O)C(=O)N[C@@H]([C@@H](C)CC)C(=O)N[C@@H](C)C(=O)N[C@@H]([C@@H](C)CC)C(=O)N[C@H](C(=O)NCC(=O)N[C@@H](CCSC)C(=O)N[C@@H](CO)C(=O)N[C@H](C(=O)N[C@@H](Cc4c[nH]c5ccccc45)C(=O)N[C@@H](CO)C(=O)O)[C@@H](C)O)CSSC[C@@H](C(=O)O)NC(=O)[C@H](Cc4ccccc4)NC(=O)[C@H](CCCNC(=N)N)NC(=O)[C@H](C)NC(=O)[C@H](CC(C)C)NC(=O)[C@H](CO)NC(=O)[C@H](CCCNC(=N)N)NC(=O)[C@H](CCCCN)NC(=O)[C@H]([C@@H](C)O)NC3=O)NC2=O)cc1)C(=O)O [AQ1-EEEGGG-Glu^γ-C15-CH3]	0.37	0.89		
CC[C@H](C)[C@@H]1NC(=O)[C@H](C)NC(=O)[C@H]([C@@H](C)CC)NC(=O)[C@H](CCC(N)=O)NC(=O)[C@H](C)NC(=O)[C@H](CCCNC(=N)N)NC(=O)[C@H](C(C)C)NC(=O)[C@H](CC(C)C)NC(=O)[C@H](CCC(=O)O)NC(=O)[C@H](CCCNC(=N)N)NC(=O)CNC(=O)[C@@H](NC(=O)[C@H](CC(C)C)NC(=O)[C@H](CCCCN)NC(=O)[C@@H](NC(=O)[C@@H](NC(=O)[C@H](CCC(=O)O)NC(=O)[C@H](CCC(=O)O)NC(=O)[C@H](CCSC)NC(=O)[C@H](Cc2c[nH]c3ccccc23)NC(=O)[C@H](CO)NC(=O)[C@H](C)N)C(C)C)[C@@H](C)CC)CSSC[C@@H]2NC(=O)[C@@H](NC(=O)[C@H](CCCCN)NC(=O)[C@H](CC(N)=O)NC(=O)[C@H](C)NC(=O)[C@H](CC(C)C)NC(=O)[C@H](C)NC(=O)[C@H](CO)NC(=O)[C@H](Cc3ccc(O)cc3)NC(=O)[C@H](CC(C)C)NC(=O)[C@@H](N)Cc3ccc(C(C)=NOCCNC(=O)CNC(=O)[C@H](CCC(=O)O)NC(=O)[C@@H](NC(=O)CNC(=O)[C@H](CO)NC(=O)[C@H](CO)NC(=O)CNC(=O)[C@H](CCC(=O)O)NC(=O)CNC(=O)[C@@H](NC(=O)CC[C@H](NC(=O)CCCCCCCCCCCCC(=O)O)C(=O)O)[C@@H](C)O)[C@@H](C)O)cc3)CSSC[C@H](NC(=O)CNC(=O)[C@H](C(C)C)NC(=O)[C@H](Cc3c[nH]cn3)NC2=O)C(=O)N[C@@H]([C@@H](C)O)C(=O)N[C@@H](CCCCN)C(=O)N[C@@H](CCCNC(=N)N)C(=O)N[C@@H](CO)C(=O)N[C@@H](CC(C)C)C(=O)N[C@@H](C)C(=O)N[C@@H](CCCNC(=N)N)C(=O)N[C@@H](Cc2ccccc2)C(=O)N[C@H](C(=O)O)CSSC[C@@H](C(=O)NCC(=O)N[C@@H](CCSC)C(=O)N[C@@H](CO)C(=O)N[C@H](C(=O)N[C@@H](Cc2c[nH]c3ccccc23)C(=O)N[C@@H](CO)C(=O)O)[C@@H](C)O)NC1=O [AQ1-GETGSSGEGT-Glu^γ-C13-COOH]	1.11	0.28		
CC[C@H](C)[C@@H]1NC(=O)[C@H](C)NC(=O)[C@H]([C@@H](C)CC)NC(=O)[C@H](CCC(N)=O)NC(=O)[C@H](C)NC(=O)[C@H](CCCNC(=N)N)NC(=O)[C@H](C(C)C)NC(=O)[C@H](CC(C)C)NC(=O)[C@H](CCC(=O)O)NC(=O)[C@H](CCCNC(=N)N)NC(=O)CNC(=O)[C@@H](NC(=O)[C@H](CC(C)C)NC(=O)[C@H](CCCCN)NC(=O)[C@@H](NC(=O)[C@@H](NC(=O)[C@H](CCC(=O)O)NC(=O)[C@H](CCC(=O)O)NC(=O)[C@H](CCSC)NC(=O)[C@H](Cc2c[nH]c3ccccc23)NC(=O)[C@H](CO)NC(=O)[C@H](C)N)C(C)C)[C@@H](C)CC)CSSC[C@@H]2NC(=O)[C@@H](NC(=O)[C@H](CCCCN)NC(=O)[C@H](CC(N)=O)NC(=O)[C@H](C)NC(=O)[C@H](CC(C)C)NC(=O)[C@H](C)NC(=O)[C@H](CO)NC(=O)[C@H](Cc3ccc(O)cc3)NC(=O)[C@H](CC(C)C)NC(=O)[C@@H](N)Cc3ccc(C(C)=NOCCNC(=O)CNC(=O)CNC(=O)CNC(=O)CNC(=O)[C@H](CO)NC(=O)CC[C@H](NC(=O)CCCCCCCCCCCCCCC(=O)O)C(=O)O)cc3)CSSC[C@H](NC(=O)CNC(=O)[C@H](C(C)C)NC(=O)[C@H](Cc3c[nH]cn3)NC2=O)C(=O)N[C@@H]([C@@H](C)O)C(=O)N[C@@H](CCCCN)C(=O)N[C@@H](CCCNC(=N)N)C(=O)N[C@@H](CO)C(=O)N[C@@H](CC(C)C)C(=O)N[C@@H](C)C(=O)N[C@@H](CCCNC(=N)N)C(=O)N[C@@H](Cc2ccccc2)C(=O)N[C@H](C(=O)O)CSSC[C@@H](C(=O)NCC(=O)N[C@@H](CCSC)C(=O)N[C@@H](CO)C(=O)N[C@H](C(=O)N[C@@H](Cc2c[nH]c3ccccc23)C(=O)N[C@@H](CO)C(=O)O)[C@@H](C)O)NC1=O [AQ1-GGGGS-Glu^γ-C15-COOH]			5.526	44
CC[C@H](C)[C@@H]1NC(=O)[C@H](C)NC(=O)[C@H]([C@@H](C)CC)NC(=O)[C@H](CCC(N)=O)NC(=O)[C@H](C)NC(=O)[C@H](CCCNC(=N)N)NC(=O)[C@H](C(C)C)NC(=O)[C@H](CC(C)C)NC(=O)[C@H](CCC(=O)O)NC(=O)[C@H](CCCNC(=N)N)NC(=O)CNC(=O)[C@@H](NC(=O)[C@H](CC(C)C)NC(=O)[C@H](CCCCN)NC(=O)[C@@H](NC(=O)[C@@H](NC(=O)[C@H](CCC(=O)O)NC(=O)[C@H](CCC(=O)O)NC(=O)[C@H](CCSC)NC(=O)[C@H](Cc2c[nH]c3ccccc23)NC(=O)[C@H](CO)NC(=O)[C@H](C)N)C(C)C)[C@@H](C)CC)CSSC[C@@H]2NC(=O)[C@@H](NC(=O)[C@H](CCCCN)NC(=O)[C@H](CC(N)=O)NC(=O)[C@H](C)NC(=O)[C@H](CC(C)C)NC(=O)[C@H](C)NC(=O)[C@H](CO)NC(=O)[C@H](Cc3ccc(O)cc3)NC(=O)[C@H](CC(C)C)NC(=O)[C@@H](N)Cc3ccc(C(C)=NOCCNC(=O)CNC(=O)CNC(=O)CNC(=O)[C@H](CCCCN)NC(=O)[C@H](CCCCN)NC(=O)[C@H](CCCCN)NC(=O)CC[C@H](NC(=O)CCCCCCCCCCCCC(=O)O)C(=O)O)cc3)CSSC[C@H](NC(=O)CNC(=O)[C@H](C(C)C)NC(=O)[C@H](Cc3c[nH]cn3)NC2=O)C(=O)N[C@@H]([C@@H](C)O)C(=O)N[C@@H](CCCCN)C(=O)N[C@@H](CCCNC(=N)N)C(=O)N[C@@H](CO)C(=O)N[C@@H](CC(C)C)C(=O)N[C@@H](C)C(=O)N[C@@H](CCCNC(=N)N)C(=O)N[C@@H](Cc2ccccc2)C(=O)N[C@H](C(=O)O)CSSC[C@@H](C(=O)NCC(=O)N[C@@H](CCSC)C(=O)N[C@@H](CO)C(=O)N[C@H](C(=O)N[C@@H](Cc2c[nH]c3ccccc23)C(=O)N[C@@H](CO)C(=O)O)[C@@H](C)O)NC1=O [AQ1-GGGKKK-Glu^γ-C13-COOH]	0.231	0.1		
